Here are results for 2 variants from IntAct's records for PubMed 21057110.

B1: Arf-GAP with dual PH domain-containing protein 1 (Homo sapiens), O75689 (parent)
chain: MAKERRRAVLELLQRPGNARCADCGAPDPDWASYTLGVFICLSCSGIHRNIPQVSKVKSVRLDAWEEAQVEFMASHGNDAARARFESKVPSFYYRPTPSDCQLLREQWIRAKYERQEFIYPEKQEPYSAGYREGFLWKRGRDNGQFLSRKFVLTEREGALKYFNRNDAKEPKAVMKIEHLNATFQPAKIGHPHGLQVTYLKDNSTRNIFIYHEDGKEIVDWFNALRAARFHYLQVAFPGAGDADLVPKLSRNYLKEGYMEKTGPKQTEGFRKRWFTMDDRRLMYFKDPLDAFARGEVFIGSKESGYTVLHGFPPSTQGHHWPHGITIVTPDRKFLFACETESDQREWVAAFQKAVDRPMLPQEYAVEAHFKHKP

The variants in this assay derive from B1. The settings on record: with ki13b_human KIF13B.
With Y211G, the “effect of a mutation on the interaction” value is “disrupting interaction strength”.

Regarding Y211R, the “effect of a mutation on the interaction” value is “disrupting interaction strength”.
